How the values were obtained:
Assay type in all cases: cell-based, human
[1] = tested on: ventralized AFE; assay: Induction of lung and parathyroid markers from ventralized AFE
Method: (§1) Mouse embryonic fibroblasts were depleted by a 24 h passage on Ma gel (Gibco) with Y-27632 (10 μM), and embryoid bodies were formed on low-adherence dishes (Costar). During embryoid body formation and differentiation, HES2 cells were reseeded at the same concentration (1:1 dilution), whereas HDF2 and HDF9 required a higher seeding (2:1-4:1 concentration) for efficient endoderm generation. Differentiations were performed in a medium of DMEM/F12 (Invitrogen) supplemented with N2 (Gibco), B27 (Gibco), ascorbic acid (50 μg/ml, Sigma). Glutamax (2 mM, Invitrogen), monothioglycerol ([…], Sigma). The following concentrations of factors were used for primitive streak formation, endoderm induction, anterior/pharyngeal endoderm induction, and subsequent anterior posterior and dorsoventral patterning: human BMP-4, 1 ng/ml and 10 ng/ml; human bFGF, 2.5 ng/ml; human activin A, 100 ng/ml; human Noggin, 200 ng/ml; Y-27632, 1 μM; SB-431542, 10 μM; human FGF10, 10 ng/ml; human FGF7, 10 ng/ml; murine EGF 20 ng/ml; and human WNT3a, 100 ng/ml. Hepatic conditions were as previously described 2 and contain BMP-4, 50 ng/ml; bFGF, 10 ng/ml; VEGF, 10 ng/ml; HGF, 10 ng/ml; TGFα, 20 ng/ml; dexamethasone, 40 ng/ml. All factors were purchased from R&D systems, except SB-431542 and Y-27632, which are from Tocris, and dexamethasone (Sigma). […]
(§2) Total RNA was extracted using Trizol (Invitrogen), phase lock tubes (5′ Prime) and the RNeasy kit (Qiagen). […] Amplified material was detected using SybrGreen (Invitrogen). Real-time quantitative PCR was performed on ABI 7900HT thermocycler (Applied Biosystems), with a 10-min step at 95° C. followed by 40 cycles of 95° C. for 15 s and 60° C. for 1 min. All experiments were done in triplicate with SYBR GreenER quantitative PCR SuperMix (Invitrogen). […] Absolute quantification was obtained in relation to a standard curve of genomic DNA dilution series. Quantified values for the gene of interest were normalized against input determined by the housekeeping genes GAPDH and β-ACTIN, qPCR for each culture well was performed in triplicate.

[2] = tested on: activin A-induced definitive endoderm (HES2); assay: Anteriorization of activin A-induced definitive endoderm, factors added at day 5, marker mRNA by quantitative PCR at day 9
Method: as §1
as §2, with “triplicate. […]” for “triplicate.”

[3] = tested on: hES cell line HES2; assay: Activin A induction of definitive endoderm from hES cells (flow cytometry, cell number); settings: after 4 d of exposure to activin A
Method: hESC (HES2, National Institutes of Health code ES02 from ES Cell International; passages 25-33) were cultured on mouse embryonic fibroblasts plated at 8,000-12,000 cells/cm^2, A medium of DMEM/F12, 20% knockout serum replacement (Gibco), 0.1 mM β-mercaptoethanol (Sigma-Aldrich), and 20 ng/ml FGF-2 (R&D) was changed daily. Cells were passaged with trypsin, washed and replated at a dilution of 1:5 to 1:10. HDF2 and HDF9, hiPS cell lines, were cultured as hES2. hES and hiPS cultures were maintained in a 5% CO2/air environment, and hES differentiations were maintained in a 5% CO2/5% O2/90% N2 environment.
Mouse embryonic fibroblasts were depleted by a 24 h passage on Ma gel (Gibco) with Y-27632 (10 μM), and embryoid bodies were formed on low-adherence dishes (Costar). During embryoid body formation and differentiation, HES2 cells were reseeded at the same concentration (1:1 dilution), whereas HDF2 and HDF9 required a higher seeding (2:1-4:1 concentration) for efficient endoderm generation. Differentiations were performed in a medium of DMEM/F12 (Invitrogen) supplemented with N2 (Gibco), B27 (Gibco), ascorbic acid (50 μg/ml, Sigma). Glutamax (2 mM, Invitrogen), monothioglycerol (0.4 μM, Sigma). […]
Day 5 embryoid bodies or day 13 monolayer cultures were dissociated with trypsin/EDTA (2 min). […] Cells were analyzed on a LSRII. […]

[4] = retinoic acid added to the WKFBE cocktail
[5] = mRNA at day 9, factors added at day 5

CC1=C(/C=C/C(C)=C/C=C/C(C)=C/C(=O)O)C(C)(C)CCC1 [retinoic acid, all-trans retinoic acid]
expression of FOXP2, NKX2.1, GATA6 and FOXJ1 [1, 4]: increased | expression of the pharyngeal pouch marker PAX1 [1, 4]: decreased

B1: sFRP3: soluble Frizzled-related protein 3, WNT antagonist (protein, UniProt Q92765 33-325, looked up)
Secreted frizzled-related …: AACEPVRIPLCKSLPWNMTKMPNHLHHSTQANAILAIEQFEGLLGTHCSPDLLFFLCAMYAPICTIDFQHEPIKPCKSVCERARQGCEPILIKYRHSWPENLACEELPVYDRGVCISPEAIVTADGADFPMDSSNGNCRGASSERCKCKPIRATQKTYFRNNYNYVIRAKVKEIKTKCHDVTAVVEVKEILKSSLVNIPRDTVNLYTSSGCLCPPLNVNEEYIIMGYEDEERSRLLLVEGSIAEKWKDRLGKKVKRWDMKLRHLGLSKSDSSNSDSTQSQKSGRNSNPRQARN
induction of PAX9 and SOX2 when added to NOGGIN/SB-431542 ([2]; day 9, sFRP3 added with NOGGIN/SB-431542): detrimental | SOX2 expression [2, 5]: not sufficient

B2: activin A: human activin A, soluble cytokine activating the same receptor as nodal; 100 ng/ml (protein, UniProt P08476 311-426, looked up)
Inhibin beta A chain: GLECDGKVNICCKKQFFVSFKDIGWNDWIIAPSGYHANYCEGECPSHIAGTSGSSLSFHSTVINHYRMRGHSPFANLKSCCVPTKLRPMSMLYYDDGQNIIKKDIQNMIVEECGCS
modifications: Inhibin beta A chain
notes: 100 ng/ml
cells expressing the definitive endoderm markers CXCR4, c-KIT and EPCAM [3]: > 95%

B3: WNT3a: human WNT3a, agonist of canonical Wnt signaling; 100 ng/ml (protein, UniProt P56704 19-352, looked up)
Protein Wnt-3a: SYPIWWSLAVGPQYSSLGSQPILCASIPGLVPKQLRFCRNYVEIMPSVAEGIKIGIQECQHQFRGRRWNCTTVHDSLAIFGPVLDKATRESAFVHAIASAGVAFAVTRSCAEGTAAICGCSSRHQGSPGKGWKWGGCSEDIEFGGMVSREFADARENRPDARSAMNRHNNEAGRQAIASHMHLKCKCHGLSGSCEVKTCWWSQPDFRAIGDFLKDKYDSASEMVVEKHRESRGWVETLRPRYTYFKVPTERDLVYYEASPNFCEPNPETGSFGTRDRTCNVSSHGIDGCDLLCCGRGHNARAERRREKCRCVFHWCCYVSCQECTRVYDVHTCK
CDX2 expression [2, 5]: increased

B4: FGF8: fibroblast growth factor 8, agonist of FGF signaling (protein, UniProt P55075 23-233, looked up)
Fibroblast growth factor 8: QEGPGRGPALGRELASLFRAGREPQGVSQQHVREQSLVTDQLSRRLIRTYQLYSRTSGKHVQVLANKRINAMAEDGDPFAKLIVETDTFGSRVRVRGAETGLYICMNKKGKLIAKSNGKGKDCVFTEIVLENNYTALQNAKYEGWYMAFTRKGRPRKGSKTRQHQREVHFMKRLPRGHHTTEQSLRFEFLNYPPFTRSLRGSQRTWAPEPR
parathyroid-specific marker GCM2 ([1]; AFE ventralized with WKFBE in the absence of retinoic acid): induced

— patent publication US9719067B2, “Generation of anterior foregut endoderm from pluripotent cells” (Mount Sinai School of Medicine, priority 2010, dated 2017)
